The values below come from patent publication US20200317768A1 (published 2020).

Assay [1] deals with T1, cynomolgus monkey FcγRIIa2 extracellular domain with C-terminal His-tag (cynomolgus monkey).
T1 construct: Expressed in FreeStyle 293 cells and purified; also called cyno FcγRIIa2; cynoFcgRIIa2; not shown: C-terminal His-tag
T1 chain: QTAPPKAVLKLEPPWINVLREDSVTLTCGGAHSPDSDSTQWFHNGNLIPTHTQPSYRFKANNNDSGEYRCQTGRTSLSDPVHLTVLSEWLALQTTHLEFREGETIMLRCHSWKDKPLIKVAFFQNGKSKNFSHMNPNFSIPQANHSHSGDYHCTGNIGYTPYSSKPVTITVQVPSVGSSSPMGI
The assay is described as follows: SPR (Biacore), antibody captured on chip, FcgR extracellular domain as analyte, 25 C. As to the method: (§1) The kinetic analysis of interactions between these antibodies and FcγR was carried out using BIACORE® T200 or BIACORE® 4000 (GE Healthcare). HBS-EP+ (GE Healthcare) was used as the running buffer, and the measurement temperature was set to 25° C. A chip produced by immobilizing Protein A. Protein A/G or mouse anti-human IgG kappa light chain (BD Biosciences) onto a Series S Sensor Chip CM4 or CM5 (GE Healthcare) by the amine-coupling method was used. […] After the measurement, the antibody captured on the chip was washed off by allowing reaction with 10 mM glycine-HCl, pH1.5 and 25 mM NaOH so that the chip was regenerated and used repeatedly. The sensorgrams obtained as measurement results were analyzed by the 1:1 Langmuir binding model using the BIACORE® Evaluation Software to calculate the binding rate constant ka (L/mol/s) and dissociation rate constant kd (l/s), and the dissociation constant KD (mol/L) was calculated from these values. […] Regarding such interactions, KD values were calculated using the following 1:1 binding model described in BIACORE® T100 Software Handbook BR1006-48 Edition AE.
(§2) The resultant variants were expressed using M103202L889-SK1 as light chain and their affinity to human and cynoFcγRs were evaluated (Table 20).

Assay [2] has as its target T2, human FcγRIIaH extracellular domain with C-terminal His-tag (human, UniProt P12318 34-217).
T2 construct: Expressed in FreeStyle 293 cells and purified; also called human FcγRIIa (type H); FcgRIIaH; not shown: C-terminal His-tag
T2 sequence: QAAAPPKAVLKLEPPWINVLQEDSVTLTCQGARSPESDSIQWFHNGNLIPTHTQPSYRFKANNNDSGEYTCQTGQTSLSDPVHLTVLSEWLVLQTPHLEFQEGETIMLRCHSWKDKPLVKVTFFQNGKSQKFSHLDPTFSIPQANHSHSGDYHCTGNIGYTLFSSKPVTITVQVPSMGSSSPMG
Described as above. As to the method:
as §1, §2

B1: MS_M103205H795-SG1/M103202L889-SK1 (antibody, human IgG1, kappa)
heavy: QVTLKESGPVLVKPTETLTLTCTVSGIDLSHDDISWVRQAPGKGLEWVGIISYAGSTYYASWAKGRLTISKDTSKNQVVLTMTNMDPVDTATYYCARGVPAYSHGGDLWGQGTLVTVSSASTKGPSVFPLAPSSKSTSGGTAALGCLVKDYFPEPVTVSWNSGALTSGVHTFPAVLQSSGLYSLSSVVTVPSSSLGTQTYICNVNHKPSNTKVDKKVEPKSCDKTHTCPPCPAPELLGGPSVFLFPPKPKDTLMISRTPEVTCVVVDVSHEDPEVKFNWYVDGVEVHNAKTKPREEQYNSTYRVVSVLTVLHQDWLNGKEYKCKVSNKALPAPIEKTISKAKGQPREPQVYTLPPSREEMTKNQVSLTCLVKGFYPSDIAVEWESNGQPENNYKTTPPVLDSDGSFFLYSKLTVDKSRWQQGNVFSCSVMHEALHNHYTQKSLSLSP
light: DIVMTQSPATLSLSPGERATLSCTSSQSVYHANWLSWFQQKPGQPPKLLIYWASTLAYGVPSRFSGSGSGTDFTLTISSLQPEDAATYYCAGGYGGGRYAFGQGTKVEIKRTVAAPSVFIFPPSDEQLKSGTASVVCLLNNFYPREAKVQWKVDNALQSGNSQESVTEQDSKDSTYSLSSTLTLSKADYEKHKVYACEVTHQGLSSPVTKSFNRGEC
notes: Anti-latent myostatin IgG; also called MS1032LO06-SG1
Regarding B1, the dissociation constant Kd (commonly the free concentration of one partner at which half of the binding sites on the other are occupied at equilibrium, for simple one-to-one binding) came out at 5.1 µM in assay [1] and 0.69 µM in assay [2].

B2: M103205H795-MY168 / M103202L889-SK1 (antibody, human IgG1, kappa)
heavy: QVTLKESGPVLVKPTETLTLTCTVSGIDLSHDDISWVRQAPGKGLEWVGIISYAGSTYYASWAKGRLTISKDTSKNQVVLTMTNMDPVDTATYYCARGVPAYSHGGDLWGQGTLVTVSSASTKGPSVFPLAPSSKSTSGGTAALGCLVKDYFPEPVTVSWNSGALTSGVHTFPAVLQSSGLYSLSSVVTVPSSSLGTQTYICNVNHKPSNTKVDKKVEPKSCDKTHTCPPCPAPELLNGPSVFLFPPKPKDTLMISRTPEVTCVVVDVSEEDPEVKFNWYVDGVEVHNAKTKPREEQYNSTYRVVSVLTVLHQDWLNGKEYKCKVSNKALPAPIEKTISKAKGQPREPQVYTLPPSREEMTKNQVSLTCLVKGFYPSDIAVEWESNGQPENNYKTTPAVLDSDGSFFLYSKLTVDKSRWQQGNVFSCSVMHEALHNHYTQKSLSLSP
light: DIVMTQSPATLSLSPGERATLSCTSSQSVYHANWLSWFQQKPGQPPKLLIYWASTLAYGVPSRFSGSGSGTDFTLTISSLQPEDAATYYCAGGYGGGRYAFGQGTKVEIKRTVAAPSVFIFPPSDEQLKSGTASVVCLLNNFYPREAKVQWKVDNALQSGNSQESVTEQDSKDSTYSLSSTLTLSKADYEKHKVYACEVTHQGLSSPVTKSFNRGEC
notes: Position 396 variant derived from MY052, expressed with M103202L889-SK1 as light chain
Regarding B2, the figures for the dissociation constant (Kd) in assay [1] and in assay [2] were 2.5 µM and 1.6 µM, respectively.

B3: M103205H795-MY171 / M103202L889-SK1 (antibody, human IgG1, kappa)
heavy: QVTLKESGPVLVKPTETLTLTCTVSGIDLSHDDISWVRQAPGKGLEWVGIISYAGSTYYASWAKGRLTISKDTSKNQVVLTMTNMDPVDTATYYCARGVPAYSHGGDLWGQGTLVTVSSASTKGPSVFPLAPSSKSTSGGTAALGCLVKDYFPEPVTVSWNSGALTSGVHTFPAVLQSSGLYSLSSVVTVPSSSLGTQTYICNVNHKPSNTKVDKKVEPKSCDKTHTCPPCPAPELLNGPSVFLFPPKPKDTLMISRTPEVTCVVVDVSEEDPEVKFNWYVDGVEVHNAKTKPREEQYNSTYRVVSVLTVLHQDWLNGKEYKCKVSNKALPAPIEKTISKAKGQPREPQVYTLPPSREEMTKNQVSLTCLVKGFYPSDIAVEWESNGQPENNYKTTPFVLDSDGSFFLYSKLTVDKSRWQQGNVFSCSVMHEALHNHYTQKSLSLSP
light: DIVMTQSPATLSLSPGERATLSCTSSQSVYHANWLSWFQQKPGQPPKLLIYWASTLAYGVPSRFSGSGSGTDFTLTISSLQPEDAATYYCAGGYGGGRYAFGQGTKVEIKRTVAAPSVFIFPPSDEQLKSGTASVVCLLNNFYPREAKVQWKVDNALQSGNSQESVTEQDSKDSTYSLSSTLTLSKADYEKHKVYACEVTHQGLSSPVTKSFNRGEC
notes: as for B2
Turning to B3, the Kd in assay [1] worked out at 23 µM; in assay [2] it was 1.2 µM.

B4: M103205H795-MY169 / M103202L889-SK1 (antibody, human IgG1, kappa)
heavy: QVTLKESGPVLVKPTETLTLTCTVSGIDLSHDDISWVRQAPGKGLEWVGIISYAGSTYYASWAKGRLTISKDTSKNQVVLTMTNMDPVDTATYYCARGVPAYSHGGDLWGQGTLVTVSSASTKGPSVFPLAPSSKSTSGGTAALGCLVKDYFPEPVTVSWNSGALTSGVHTFPAVLQSSGLYSLSSVVTVPSSSLGTQTYICNVNHKPSNTKVDKKVEPKSCDKTHTCPPCPAPELLNGPSVFLFPPKPKDTLMISRTPEVTCVVVDVSEEDPEVKFNWYVDGVEVHNAKTKPREEQYNSTYRVVSVLTVLHQDWLNGKEYKCKVSNKALPAPIEKTISKAKGQPREPQVYTLPPSREEMTKNQVSLTCLVKGFYPSDIAVEWESNGQPENNYKTTPDVLDSDGSFFLYSKLTVDKSRWQQGNVFSCSVMHEALHNHYTQKSLSLSP
light: DIVMTQSPATLSLSPGERATLSCTSSQSVYHANWLSWFQQKPGQPPKLLIYWASTLAYGVPSRFSGSGSGTDFTLTISSLQPEDAATYYCAGGYGGGRYAFGQGTKVEIKRTVAAPSVFIFPPSDEQLKSGTASVVCLLNNFYPREAKVQWKVDNALQSGNSQESVTEQDSKDSTYSLSSTLTLSKADYEKHKVYACEVTHQGLSSPVTKSFNRGEC
notes: as for B2
As to B4, the results for the dissociation constant Kd in assay [1] and in assay [2] were 2.3 µM and 1.2 µM, respectively.

B5: M103205H795-MY052 / M103202L889-SK1 (antibody, human IgG1, kappa)
heavy: QVTLKESGPVLVKPTETLTLTCTVSGIDLSHDDISWVRQAPGKGLEWVGIISYAGSTYYASWAKGRLTISKDTSKNQVVLTMTNMDPVDTATYYCARGVPAYSHGGDLWGQGTLVTVSSASTKGPSVFPLAPSSKSTSGGTAALGCLVKDYFPEPVTVSWNSGALTSGVHTFPAVLQSSGLYSLSSVVTVPSSSLGTQTYICNVNHKPSNTKVDKKVEPKSCDKTHTCPPCPAPELLNGPSVFLFPPKPKDTLMISRTPEVTCVVVDVSEEDPEVKFNWYVDGVEVHNAKTKPREEQYNSTYRVVSVLTVLHQDWLNGKEYKCKVSNKALPAPIEKTISKAKGQPREPQVYTLPPSREEMTKNQVSLTCLVKGFYPSDIAVEWESNGQPENNYKTTPMVLDSDGSFFLYSKLTVDKSRWQQGNVFSCSVMHEALHNHYTQKSLSLSP
light: DIVMTQSPATLSLSPGERATLSCTSSQSVYHANWLSWFQQKPGQPPKLLIYWASTLAYGVPSRFSGSGSGTDFTLTISSLQPEDAATYYCAGGYGGGRYAFGQGTKVEIKRTVAAPSVFIFPPSDEQLKSGTASVVCLLNNFYPREAKVQWKVDNALQSGNSQESVTEQDSKDSTYSLSSTLTLSKADYEKHKVYACEVTHQGLSSPVTKSFNRGEC
notes: Fc variant of M103205H795-SG1, expressed with M103202L889-SK1 as light chain; parent of the position 396 variants
As for B5, the Kd in assay [1] stood at 1.5 µM; in assay [2], 0.83 µM.

B6: M103205H795-MY170 / M103202L889-SK1 (antibody, human IgG1, kappa)
heavy: QVTLKESGPVLVKPTETLTLTCTVSGIDLSHDDISWVRQAPGKGLEWVGIISYAGSTYYASWAKGRLTISKDTSKNQVVLTMTNMDPVDTATYYCARGVPAYSHGGDLWGQGTLVTVSSASTKGPSVFPLAPSSKSTSGGTAALGCLVKDYFPEPVTVSWNSGALTSGVHTFPAVLQSSGLYSLSSVVTVPSSSLGTQTYICNVNHKPSNTKVDKKVEPKSCDKTHTCPPCPAPELLNGPSVFLFPPKPKDTLMISRTPEVTCVVVDVSEEDPEVKFNWYVDGVEVHNAKTKPREEQYNSTYRVVSVLTVLHQDWLNGKEYKCKVSNKALPAPIEKTISKAKGQPREPQVYTLPPSREEMTKNQVSLTCLVKGFYPSDIAVEWESNGQPENNYKTTPEVLDSDGSFFLYSKLTVDKSRWQQGNVFSCSVMHEALHNHYTQKSLSLSP
light: DIVMTQSPATLSLSPGERATLSCTSSQSVYHANWLSWFQQKPGQPPKLLIYWASTLAYGVPSRFSGSGSGTDFTLTISSLQPEDAATYYCAGGYGGGRYAFGQGTKVEIKRTVAAPSVFIFPPSDEQLKSGTASVVCLLNNFYPREAKVQWKVDNALQSGNSQESVTEQDSKDSTYSLSSTLTLSKADYEKHKVYACEVTHQGLSSPVTKSFNRGEC
notes: as for B2
For the molecule B6, the Kd in assay [1] was 2.4 µM; in assay [2], 1.7 µM.
